Measurements taken from patent US20250382386A1 (KINTOR PHARMACEUTICAL GUANGDONG, published 2025).
Read-outs that look alike come from different tables or passages of the source.

Assays:
[1] = target: T1, human ALK-1 on cells (CHO-K1-hALK-1 cells; HUVEC; A172) (human, UniProt P37023 22-503); experiment: cell-based or functional assay
[2] = target: T1, human ALK-1 on cells (CHO-K1-hALK-1 …); experiment: cell-based or functional assay; remark: listed apart in the source
[3] = target: T1, human ALK-1 on cells (CHO-K1-hALK-1 …); experiment: cell-based or functional assay; remark: listed apart in the source
[4] = target: T1, human ALK-1 on cells (CHO-K1-hALK-1 …); experiment: cell-based or functional assay; remark: listed apart in the source
[5] = target: T1, human ALK-1 on cells (CHO-K1-hALK-1 …); experiment: cell-based or functional assay; remark: listed apart in the source
[6] = target: T1, human ALK-1 on cells (CHO-K1-hALK-1 …); experiment: flow cytometry on CHO-K1-hALK-1 cells ('Binding affinity to CHO-ALK1'), MFI; method as for FIG. 3
[7] = target: T1, human ALK-1 on cells (CHO-K1-hALK-1 …); experiment: flow cytometry on CHO-K1-hALK-1 cells, MFI; VEGF 165-biotin and APC-anti-human IgG mAb added after the antibody
[8] = target: T1, human ALK-1 on cells (CHO-K1-hALK-1 …); experiment: flow cytometry on CHO-K1-ALK-1 cells, MFI; detection with human PD-1-PE and PE anti-human IgG Fc antibody 'respectively'
[9] = target: T1, human ALK-1 on cells (CHO-K1-hALK-1 …); experiment: flow cytometry on CHO-K1-hALK-1 cells, MFI

Row | Binder | IC50 of blocking BMP9-induced Smad1 phosphorylation in HUVEC cells (ELISA kit) [1] | further results
1 | anti-ALK-1 antibody #1 (antibody, human IgG1, kappa, L234A L235A, V domains shown) VH: QVQLQESGPGLVKPSQTLSLTCTVSGGSISSGEYYWNWIRQHPGKGLEWIGYIYYSGSTYYNPSLKSRVTISVDTSKNQFSLKLSSVTAADTAVYYCARESVAGFDYWGQGTLVTVSS VL: EIVLTQSPGTLSLSPGERATLSCRASQSVSSSYLAWYQQKPGQAPRLLIYGTSSRATGIPDRFSGSGSGTDFTLTISRLEPEDFAVYYCQGYGSFPITFGQGTRLEIKR | 5.8 nM | 
2 | anti-ALK-1 antibody #3 (antibody, human IgG1, kappa, L234A L235A, V domains shown) VH: QVQLQESGPGLVKPSQTLSLTCTVSGGSISSGEYYWNWIRQHPGKGLEWIGYIYYSGSTYYNPSLKSRVTISVDTSKNQFSLKLSSVTAADTAVYYCARESVAGFDYWGQGTLVTVSS VL: EIVLTQSPGTLSLSPGERATLSCRASQSVSSSYLAWYQQKPGQAPRLLIYGTSSRATGIPDRFSGSGSGTDFTLTISRLEPEDFAVYYCQLYGSFPITFGQGTRLEIKR | 5.3 nM | 
3 | anti-ALK-1 antibody #25 (antibody, human IgG1, kappa, L234A L235A, V domains shown) VH: QVQLQESGPGLVKPSQTLSLTCTVSGGSISSGEYYWNWIRQHPGKGLEWIGYIYYSGSTYYNPSLKSRVTISVDTSKNQFSLKLSSVTAADTAVYYCARESVAGFDYWGQGTLVTVSS VL: EIVLTQSPGTLSLSPGERATLSCRASQSVSSSYLAWYQQKPGQAPRLLIYGTSSRATGIPDRFSGSGSGTDFTLTISRLEPEDFAVYYCQVYGSWPITFGQGTRLEIKR | 9.1 nM | 
4 | anti-ALK-1 antibody #14 (antibody, human IgG1, kappa, L234A L235A, V domains shown) VH: QVQLQESGPGLVKPSQTLSLTCTVSGGSISSGEYYWNWIRQHPGKGLEWIGYIYYSGSTYYNPSLKSRVTISVDTSKNQFSLKLSSVTAADTAVYYCARESVAGFDYWGQGTLVTVSS VL: EIVLTQSPGTLSLSPGERATLSCRASQSVSSSYLAWYQQKPGQAPRLLIYGTSSRATGIPDRFSGSGSGTDFTLTISRLEPEDFAVYYCQMYGSWPITFGQGTRLEIKR | 11.1 nM | 
5 | anti-ALK-1 antibody #18 (antibody, human IgG1, kappa, L234A L235A, V domains shown, the rest as BM; also called #18 mutant; ALK-1 mAb (#18 mutant)) VH: QVQLQESGPGLVKPSQTLSLTCTVSGGSISSGEYYWNWIRQHPGKGLEWIGYIYYSGSTYYNPSLKSRVTISVDTSKNQFSLKLSSVTAADTAVYYCARESVAGFDYWGQGTLVTVSS VL: EIVLTQSPGTLSLSPGERATLSCRASQSVSSSYLAWYQQKPGQAPRLLIYGTSSRATGIPDRFSGSGSGTDFTLTISRLEPEDFAVYYCQAYGSWPITFGQGTRLEIKR | 8.2 nM | IC50; blocking of BMP9-induced Smad1 phosphorylation, pSmad1 ELISA assay in A172 cell line (right panel), OD 450 [2]: 2.39 nM; IC50; blocking of BMP9-induced Smad1 phosphorylation, pSmad1 ELISA assay in HUVEC (left panel), OD 450 [2]: 26.3 nM; IC50; blocking of BMP9-induced Smad1 phosphorylation, pSmad1 ELISA assay in HUVEC, OD450 [3]: 20.9 nM; IC50; blocking of BMP9-induced Smad1 phosphorylation, pSmad1 ELISA assay in HUVEC, OD450 [4]: 26.3 nM; IC50; blocking of BMP9-induced Smad1 phosphorylation, pSmad1 ELISA assay in A172 cell line, OD 450 [5]: 2.39 nM; EC50 [6]: 0.447 nM; EC50 [7]: 1.85 nM; EC50 [8]: 1.85 nM
6 | anti-ALK-1 antibody #27 (antibody, human IgG1, kappa, L234A L235A, V domains shown) VH: QVQLQESGPGLVKPSQTLSLTCTVSGGSISSGEYYWNWIRQHPGKGLEWIGYIYYSGSTYYNPSLKSRVTISVDTSKNQFSLKLSSVTAADTAVYYCARESVAGFDYWGQGTLVTVSS VL: EIVLTQSPGTLSLSPGERATLSCRASQSVSSSYLAWYQQKPGQAPRLLIYGTSSRATGIPDRFSGSGSGTDFTLTISRLEPEDFAVYYCQGYGSWPITFGQGTRLEIKR | 6.3 nM | 
7 | anti-ALK-1 antibody #12 (antibody, human IgG1, kappa, L234A L235A, V domains shown) VH: QVQLQESGPGLVKPSQTLSLTCTVSGGSISSGEYYWNWIRQHPGKGLEWIGYIYYSGSTYYNPSLKSRVTISVDTSKNQFSLKLSSVTAADTAVYYCARESVAGFDYWGQGTLVTVSS VL: EIVLTQSPGTLSLSPGERATLSCRASQSVSSSYLAWYQQKPGQAPRLLIYGTSSRATGIPDRFSGSGSGTDFTLTISRLEPEDFAVYYCQIYGSIPITFGQGTRLEIKR | 11.2 nM | 
8 | anti-ALK-1 antibody #19 (antibody, human IgG1, kappa, L234A L235A, V domains shown) VH: QVQLQESGPGLVKPSQTLSLTCTVSGGSISSGEYYWNWIRQHPGKGLEWIGYIYYSGSTYYNPSLKSRVTISVDTSKNQFSLKLSSVTAADTAVYYCARESVAGFDYWGQGTLVTVSS VL: EIVLTQSPGTLSLSPGERATLSCRASQSVSSSYLAWYQQKPGQAPRLLIYGTSSRATGIPDRFSGSGSGTDFTLTISRLEPEDFAVYYCQFYGSWPITFGQGTRLEIKR | 5.2 nM | 
9 | anti-ALK-1 antibody #26 (antibody, human IgG1, kappa, L234A L235A, V domains shown) VH: QVQLQESGPGLVKPSQTLSLTCTVSGGSISSGEYYWNWIRQHPGKGLEWIGYIYYSGSTYYNPSLKSRVTISVDTSKNQFSLKLSSVTAADTAVYYCARESVAGFDYWGQGTLVTVSS VL: EIVLTQSPGTLSLSPGERATLSCRASQSVSSSYLAWYQQKPGQAPRLLIYGTSSRATGIPDRFSGSGSGTDFTLTISRLEPEDFAVYYCQVYGSVPITFGQGTRLEIKR | 12.4 nM | 
10 | anti-ALK-1 antibody #9 (antibody, human IgG1, kappa, L234A L235A, V domains shown) VH: QVQLQESGPGLVKPSQTLSLTCTVSGGSISSGEYYWNWIRQHPGKGLEWIGYIYYSGSTYYNPSLKSRVTISVDTSKNQFSLKLSSVTAADTAVYYCARESVAGFDYWGQGTLVTVSS VL: EIVLTQSPGTLSLSPGERATLSCRASQSVSSSYLAWYQQKPGQAPRLLIYGTSSRATGIPDRFSGSGSGTDFTLTISRLEPEDFAVYYCQIYGSWPITFGQGTRLEIKR | 11.6 nM | 
11 | anti-ALK-1 antibody #28 (antibody, human IgG1, kappa, L234A L235A, V domains shown) VH: QVQLQESGPGLVKPSQTLSLTCTVSGGSISSGEYYWNWIRQHPGKGLEWIGYIYYSGSTYYNPSLKSRVTISVDTSKNQFSLKLSSVTAADTAVYYCARESVAGFDYWGQGTLVTVSS VL: EIVLTQSPGTLSLSPGERATLSCRASQSVSSSYLAWYQQKPGQAPRLLIYGTSSRATGIPDRFSGSGSGTDFTLTISRLEPEDFAVYYCQIYGSVPITFGQGTRLEIKR | 6.9 nM | 
12 | Bevacizumab (antibody, V domains shown, Bought control antibody (Biointron, B7424); also called Avastin; VEGF-A monoclonal antibody (Bevacizumab)) VH: EVQLVESGGGLVQPGGSLRLSCAASGYTFTNYGMNWVRQAPGKGLEWVGWINTYTGEPTYAADFKRRFTFSLDTSKSTAYLQMNSLRAEDTAVYYCAKYPHYYGSSHWYFDVWGQGTLVTVSS VL: DIQMTQSPSSLSASVGDRVTITCSASQDISNYLNWYQQKPGKAPKVLIYFTSSLHSGVPSRFSGSGSGTDFTLTISSLQPEDFATYYCQQYSTVPWTFGQGTKVEIK |  | binding result [9]: no binding (tested: about 50 nM)
